B2: cytosolic fragment of human TOM70 (residues 111-608), His-tagged (domain or fragment)
chain: LDRAQAAKNKGNKYFKAGKYEQAIQCYTEAISLCPTEKNVDLSTFYQNRAAAFEQLQKWKEVAQDCTKAVELNPKYVKALFRRAKAHEKLDNKKECLEDVTAVCILEGFQNQQSMLLADKVLKLLGKEKAKEKYKNREPLMPSPQFIKSYFSSFTDDIISQPMLKGEKSDEDKDKEGEALEVKENSGYLKAKQYMEEENYDKIISECSKEIDAEGKYMAEALLLRATFYLLIGNANAAKPDLDKVISLKEANVKLRANALIKRGSMYMQQQQPLLSTQDFNMAADIDPQNADVYHHRGQLKILLDQVEEAVADFDECIRLRPESALAQAQKCFALYRQAYTGNNSSQIQAAMKGFEEVIKKFPRCAEGYALYAQALTDQQQFGKADEMYDKCIDLEPDNATTYVHKGLLQLQWKQDLDRGLELISKAIEIDNKCDFAYETMGTIEVQRGNMEKAIDMFNKAINLAKSEMEMAHLYSLCDAAHAQTEVAKKYGLKPPTL

Experiment [1] addresses B2. Nature of the experiment: SEC-MALS. For orientation: In gel filtration, larger molecules generally elute earlier.
The next experiment concerns the target full-length human Hsp90 (human, UniProt P07900 1-732). Nature of the experiment: pull-down.

B1: C-terminal domain of human Hsp90 (residues 566-732) (domain or fragment)
chain: not shown
The stoichiometry N is the number of molecules, sites or subunits per partner or assembly. Consider B1, for which the “stoichiometry N” value in experiment [1] came to 2 C-Hsp90 per TOM70.

As for B2, the binding result in the experiment with full-length human Hsp90 is reported as “binds”.

(Values after paper PMC9132681 (Biochimie, 2022).)
